In patent publication US20140335016A1 (PROCLARA BIOSCIENCES, published 2014):

Legend:
[1] = molecular target: T1, amyloid-β 1-42 fibers (fAβ42) (human, UniProt P05067 672-713); assay: cell-based or functional assay
[2] = molecular target: T1, amyloid-β 1-42 fibers (fAβ42); assay: SPR, fAβ immobilized on the chip, 10^14 phage/mL

T1 sequence (P05067 672-713 limits assumed): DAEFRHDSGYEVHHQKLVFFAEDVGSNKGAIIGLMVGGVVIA

B1: recombinant soluble g3p fragment comprising the N1 and N2 domains, rs-g3p(N1N2), Construct 3 (other)
chain: MAETVESCLAKSHTENSFTNVWKDDKTLDRYANYEGCLWNATGVVVCTGDETQCYGTWVPIGLAIPENEGGGSEGGGSEGGGSEGGGTKPPEYGDTPIPGYTYINPLDGTYPPGTEQNPANPNPSLEESQPLNTFMFQNNRFRNRQGALTVYTGTVTQGTDPVKTYYQYTPVSSKAMYDAYWNGKFRDCAFHSGFNEDLFVCEYQGQSSDLPQPPVNAPSGHHHHHH
- ThT fluorescence assay, IC50 [1]: ~20 nM

B2: M13 filamentous bacteriophage (construct not stated) (other)
chain: AETVESCLAKPHTENSFTNVWKDDKTLDRYANYEGCLWNATGVVVCTGDETQCYGTWVPIGLAIPENEGGGSEGGGSEGGGSEGGGTKPPEYGDTPIPGYTYINPLDGTYPPGTEQNPANPNPSLEESQPLNTFMFQNNRFRNRQGALTVYTGTVTQGTDPVKTYYQYTPVSSKAMYDAYWNGKFRDCAFHSGFNEDPFVCEYQGQSSDLPQPPVNAGGGSGGGSGGGSEGGGSEGGGSEGGGSEGGGSGGGSGSGDFDYEKMANANKGAMTENADENALQSDAKGKLDSVATDYGAAIDGFIGDVSGLANGNGATGDFAGSNSQMAQVGDGDNSPLMNNFRQYLPSLPQSVECRPFVFSAGKPYEFSIDCDKINLFRGVFAFLLYVATFMYVFSTFANILRNKES
notes: Whole phage particle; also called M13 phage; wildtype M13
- Kd [2]: ~4 nM
